Numbering of substitutions follows the chain as printed.
B1: RUPA-29 (hIgG1) (antibody, V domains shown)
VH: QVHLVESGGGVVQPGRSLRLSCAASGFTFRSYGMHWVRLAPGKGLEWVTAIWYDGSKKHFADSVKGRFTISRDNSKNTLYLQMSSLRVEDTAVYYCARDFAHGAFYPVDWGRGTLVTVSS
VL: SYELTQPPSVSVSPGQTARITCSGDALPKKHAYWYQQKSGQAPVLVIYDDSKRPSGIPERFSGSSSGTMATLSISGAQVEDEAAYYCYSSDTSANYWVFGGGTKLTVL
notes: IgG1; source: 293T cells, purified (Protein A), or produced as recombinant human IgG1 (GenScript)
B2: RUPA-50 (hIgG1) (antibody, V domains shown)
VH: QVHLVESGGGVVQPGRSLRLSCAASGFTFRSYGMHWVRRVPGKGLEWVATISYDETFKDYPDSVKGRFTISRDNSKNTLFLQMNSLRPADTAVYYCAKDRAHSMHYFEYWGRGTLVTVSS
VL: SYELTQPPSVSVSPGQTARLTCSGDALPKKFAYWYQLKSGQAPVLVIYEDSKRPSGIPERFSGSSSGTTATLTISGAQVEDEADYYCYSRDGSGDQKNIFGGGTKLTVL
notes: as for B1
B3: RUPA-54 (hIgG1) (antibody, V domains shown)
VH: QVQLVESGGGVVQPGRSLRLSCTASGFTFRSYGIHWVRQAPGKGLQWVAFISYDGRNKYYADSVKGRFTISRDNSKNTLYLQMSGLRADDTAVYYCAKDSDNDCTATSCYTVSWGQGTLVTVSS
VL: SYELTQPPSVSVSPGQTARITCSGDALPKKYAYWYQQKSGQAPVLVIYEDKKRPSGIPERFSGSSSGTMATLTISGAQVEDEADYYCYSTDSRTDHGGIFGGGTKLTVL
notes: as for B1
B4: RUPA-89 (antibody, V domains shown)
VH: DVYLLESGGGLVQPGGSLRLSCAASGFTFSNDAMSWVRQAPGKGLEWVSGILASAPRTYYADSVKGRFIISRDNSKNTLYLQMNSLRVEDTAIYYCAKEGILRPFDPWGQGTLVTVSS
VL: QSALTQPASMSGSPGQSITISCTGTSSDVGGFKYVSWYQHHPDKAPKLIIYEVNQRPSGVSNRFSGSKSGNTASLTISGLQAEDEADYYCSSYTSITYHHVFGTGTKVTVL
notes: human IgG1; source: recombinant human IgG1, 293T (Protein A purified) or GenScript
B5: RUPA-160 (antibody, V domains shown)
VH: QVQLVQSGAEVKKPGASVKASCKASGYTFDNFDIIWARQATGQGLEWMGWMNPNTGKKGYAQNLKDRVTMTRDSSISTAYLELSSLRSEDTAVYYCVRAVGSYYGSGGWFDPWGQGTLVTVSS
VL: QSVLTQPPSASGTPGQRVTIACSGSSSNIGGNNVKWYQQLPGTAPKLVIYNNDERPPGVPDRVSGSKSGTSASLAISGVQSEDEADYYCATWDDSMKREVFGGGTKLTVL
notes: as for B4
B6: RUPA-154 (antibody, V domains shown)
VH: QVQLVQSGAEVRKPGASVKVSCRTSGYTFTDYYMHWVRQAPGEGLEWMGSINPKSGGTSYAERFQGRVTMTMETSVSTAYLDLSSLRSDDTAVYYCARLLYSRAVYYYGMDVWGQGTTVTVSS
VL: SYELTQPPSVSVAPGKTARITCGGKDLGSKSVHWYQQKPGQAPVLVIYYDNIRPSGIPERFSGSNSGNTATLTISRVEAGDEADYYCQVWDSSSDHYVFGRGAKVTVL
notes: as for B4
B7: RUPA-106 (antibody, V domains shown)
VH: EVELLESGGGLVQPGGSLRISCAASGFIFNTYAMSWVRQAPGKGLEWVSAISGSGRSTYYADSVKGRFTISRDNSNNTLYLQMNSLRAEDTAVYYCAKDTHSNILYYLFDYWGQGTLVTVSS
VL: EIVLTQSPATLSLSPGERGTLSCRASQSVSSSYLGWYQQKPGQAPRLLIYGASSRATGIPDRFSGSGSGTDFTLTISRLEPEDFAVYYCHQYGISPATFGQGTKVEIK
notes: as for B4
B8: RUPA-117 (antibody, V domains shown)
VH: QLQLQESGPGLVKPSETLSLTCTVSGGSISRSPYYWGWIRQPPGKGLEWFGSVYNNGSTYYNPSLKSRVTISVDTSKNQFSLKLSSVTAADTALYYCARHGGSTGMKVVVIAPPDYWGQGTLVTVSS
VL: DIQMTQSPATLSASVGDRVTITCRASQSISIWLAWYQQKPGEAPKLLIYKASSLQSGVPSRFSGSASGTKFSLTISSLQPDDFATFYCQQYHSYPYTFGQGTKLEIK
notes: as for B4
B9: RUPA-140 (antibody, V domains shown)
VH: EVQLLESGGGLVQPGGSLRLSCVASGFSFSNFAMNWVRQAPGKGLEWVSAISGSGGSTYYIDSVKGRFSISRDTSKNTLYLQMNSLRAEDTAVYYCAKVGGRSIFGEATDYWGQGSLVTVSS
VL: DIQMTQSPSSLSASVGDRVTITCRASQSINKYLNWYQQKPGRAPKLLIQVASSLQSGVPSRFSGSGSGTDFTLTISSLQPEDFATYYCQQTYTLPLIFGGGTKVEIK
notes: source: recombinant human IgG1, 293T (Protein A purified) or GenScript
B10: RUPA-100 (antibody, V domains shown)
VH: QVQLVESGGGVVQPGRSLRLSCAASGFSFSHYGMHWVRQAPGKGLEWVAVISYDGNYKYYGDSVKGRFTISRDNFKNTLYLQMNSLRPEDTAVYYCAKGKAHSCVSTSCYTDFWGQGTLVTVPS
VL: B3 VL with K51S, A83G, R93S, T94Y, D95N, G97R, I99V
notes: as for B4
B11: RUPA-50 (antibody, V domains shown)
VH: B2 VH
VL: B2 VL
notes: as for B4
B12: RUPA-47 (antibody, V domains shown)
VH: QVQLVQSGAEVKKPGASVKLSCTASGYTFTNFGITWVRQAPGQGLEWMAWISVYSGDTDYAQRFQGRVTMTTDTSTRTAYMEMRSLSFDDTAVYYCVRGGRDSPILGGYWGQGTLVTVSS
VL: EIVLTQSPGTLSLSPGERVTLSCRASQSVRSMYLAWYQQKPGQAPRLLIHGASIRATGIPDRFSGSGSGTDFTLTISRLEREDFAVYYCHQYGSSPLTFGGGTKVESK
notes: as for B4
B13: RUPA-34 (antibody, V domains shown)
VH: EVQLVESGGGLIQPGGSLRLSCAASGFTVSSNYMSWVRQAPGKGLEWVSVIYSGGSGGSTYYADSVKGRFTISRDNLKNTLYLQMNNLRAEDAAVYYCVRDSRGWGYFDDWGQGTLVTVSS
VL: EVVLTQSPGTLSLSPGERATLSCRASQSIRTNYLAWYQQKPGQTPRLLIYGASSRATGIPDRFSGSGSGTDFTLTISRLEPEDFAVYFCQQYQNSPWTFGQGTKVEIK
notes: as for B4
B14: RUPA-25 (antibody, V domains shown)
VH: QVQLVQSGAEVKKPGASVKVSCTASGYNFLTHDISWVRQATGQGLEWMGWMNPNTGKKGYVQKFQGRVTMDRDMSKSTAYMELRSLTSEDTAVYYCVRGVGSYYGSGGWFDPWGQGTLVTVSS
VL: QPVLTQPPSASETPGQKVTISCSGSSSNIGSDTVSWYVQLPGTAPKLLIYNDNQRPSGVPDRFSGSKSGTSASLAISGLQSEDEADYYCATWDASLKRRVFGGGTTLTVL
notes: as for B4
B15: RUPA-43 (antibody, V domains shown)
VH: QVLLVQSGAEVKKPGASVKVSCKASGYTFLYHDISWVRQATGQGLEWMGWMNPNTGDTGYAQRFQGRVTMTRDMSISTAYLELGSLSSEDTAVYYCARGVGSYHGSGGWLDPWGQGTLVIVSS
VL: QSVLTQPPSVSETPGQRVTISCSGTSSNIGINTVNWYQQLPGTAPKLLIHNDNQRPSGVPDRFAGSKSGSSAALAISGLQSEDEADYYCGTWDDSLKRRVFGGGTKLTVL
notes: as for B4
B16: RUPA-42 (antibody, V domains shown)
VH: QVQLQESGPGLVKPSQTLSLTCTVSGGSISSGGYYWSWIRQHPGKGLEWIGYIYYSGTTYYHPSLESRVTISVDTSKNQFSLKLNSVTAADTAIYYCARAGLVAAIRGSRRGQQGDYFDHWGQGTLVTVSS
VL: SYELTQPPSVSVSPGQTASITCSGEKLGDRYVSWYQQKPGQSPLLVLHQDKKRPSGIPERFSGSNSGNTATLTISGTQALDEADYFCQAWDSSTGVFGGGTKLTVL
notes: as for B4
B17: RUPA-41 (antibody, V domains shown)
VH: QVQLVQSGAELKKPGASVKVSCKASGYTFTSHDITWVRQAAGQGLEWMGWMNPNTGDKGYAQKFQGRVTLTRNMSTRTAYMELNSLTSEDTAVYYCARGVGTYHGAGGWFDPWGQGTLVTVSS
VL: QSVVTQPPSVSETPGQRVTISCSGSSSNIGSNIVSWYQQLPGTAPKLLIYSDTQRPSGVPDRFSASKSGTSASLAISGLHSEDEADYYCATWDDSLKRGVFGGGTKLTVL
notes: as for B4

Biological target: Pfs48/45 D3 (K287-A428) (Plasmodium falciparum 3D7, UniProt Q8I6T1)
Sequence (Q8I6T1 whole entry, looked up): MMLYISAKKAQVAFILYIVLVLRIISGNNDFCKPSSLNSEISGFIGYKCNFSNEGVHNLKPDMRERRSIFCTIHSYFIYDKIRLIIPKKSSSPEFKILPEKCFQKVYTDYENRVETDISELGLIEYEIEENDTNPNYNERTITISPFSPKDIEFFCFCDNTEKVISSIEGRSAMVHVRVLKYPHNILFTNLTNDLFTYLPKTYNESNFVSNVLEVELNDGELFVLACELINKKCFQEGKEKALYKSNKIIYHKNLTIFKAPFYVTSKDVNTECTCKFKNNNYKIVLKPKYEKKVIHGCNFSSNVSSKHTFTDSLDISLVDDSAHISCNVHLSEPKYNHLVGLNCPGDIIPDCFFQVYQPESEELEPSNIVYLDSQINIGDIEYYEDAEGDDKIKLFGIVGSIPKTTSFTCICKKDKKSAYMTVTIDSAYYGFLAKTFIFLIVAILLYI
Experiment: ELISA
Details: both partners purified

Binder | binding result
B1 | binds
B2 | binds
B3 | binds

Biological target: T1, recombinant full-length Pfs48/45 (Plasmodium falciparum 3D7, UniProt Q8I6T1)
T1 sequence (Q8I6T1 28-428): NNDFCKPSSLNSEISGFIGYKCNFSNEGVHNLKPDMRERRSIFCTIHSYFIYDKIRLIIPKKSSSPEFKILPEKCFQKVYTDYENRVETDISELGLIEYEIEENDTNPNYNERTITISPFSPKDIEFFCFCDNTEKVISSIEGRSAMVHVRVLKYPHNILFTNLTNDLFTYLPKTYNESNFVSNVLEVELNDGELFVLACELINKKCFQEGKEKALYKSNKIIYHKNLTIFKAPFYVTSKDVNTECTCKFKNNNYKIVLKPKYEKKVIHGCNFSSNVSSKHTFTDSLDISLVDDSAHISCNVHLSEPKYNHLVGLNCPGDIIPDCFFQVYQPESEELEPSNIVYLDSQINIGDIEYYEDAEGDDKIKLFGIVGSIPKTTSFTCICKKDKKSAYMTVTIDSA
Experiment: ELISA
Details: both partners purified

Binder | binding result
B4 | binds
B5 | binds
B6 | binds
B7 | binds
B8 | binds
B9 | binds
B10 | binds

Biological target: T2, Pfs48/45 D3 (Plasmodium falciparum 3D7, UniProt Q8I6T1)
T2 sequence (Q8I6T1 287-428): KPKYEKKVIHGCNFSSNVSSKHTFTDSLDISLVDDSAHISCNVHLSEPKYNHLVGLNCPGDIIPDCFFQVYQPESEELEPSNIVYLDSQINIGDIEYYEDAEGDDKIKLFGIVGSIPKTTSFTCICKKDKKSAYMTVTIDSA
Experiment: ELISA
Details: both partners purified

Binder | binding result
B4 | binds
B5 | no binding (tested: 10 ug/ml)
B6 | binds
B7 | binds
B8 | binds
B9 | binds
B10 | binds

Biological target: T3, Pfs48/45 D1-2 (Plasmodium falciparum 3D7, UniProt Q8I6T1)
T3 sequence (Q8I6T1 28-289): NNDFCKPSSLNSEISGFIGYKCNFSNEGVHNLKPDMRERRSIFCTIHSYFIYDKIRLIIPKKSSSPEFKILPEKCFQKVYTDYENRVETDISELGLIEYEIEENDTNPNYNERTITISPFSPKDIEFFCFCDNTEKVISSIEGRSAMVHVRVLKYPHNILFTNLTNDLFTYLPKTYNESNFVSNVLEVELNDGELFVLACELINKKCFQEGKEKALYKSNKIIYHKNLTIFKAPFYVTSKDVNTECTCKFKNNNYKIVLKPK
Experiment: ELISA
Details: both partners purified

Binder | binding result
B5 | binds
B6 | binds

Biological target: T4, Pfs48/45 D2-3 (Plasmodium falciparum 3D7, UniProt Q8I6T1)
T4 sequence (Q8I6T1 184-428): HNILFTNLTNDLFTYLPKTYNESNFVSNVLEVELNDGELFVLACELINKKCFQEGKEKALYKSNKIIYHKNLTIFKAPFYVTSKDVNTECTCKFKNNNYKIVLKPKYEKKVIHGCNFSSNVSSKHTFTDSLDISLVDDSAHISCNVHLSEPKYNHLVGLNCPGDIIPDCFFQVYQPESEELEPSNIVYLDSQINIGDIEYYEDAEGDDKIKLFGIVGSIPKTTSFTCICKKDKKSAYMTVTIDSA
Experiment: ELISA
Details: both partners purified

Binder | binding result
B4 | binds
B5 | binds
B6 | binds
B7 | binds
B8 | binds
B9 | binds
B10 | binds

Biological target: T1, recombinant full-length Pfs48/45
Experiment: ELISA
Details: both partners purified
Remark: another data set of the same source

Binder | binding result
B11 | binds
B12 | binds
B13 | binds
B14 | binds
B15 | binds
B16 | binds
B17 | binds

Biological target: T2, Pfs48/45 D3
Experiment: ELISA
Details: both partners purified
Remark: another data set of the same source

Binder | binding result
B11 | binds
B12 | binds
B13 | no binding (tested: 10 ug/ml)
B14 | no binding (tested: 10 ug/ml)
B15 | no binding (tested: 10 ug/ml)
B16 | binds
B17 | no binding (tested: 10 ug/ml)

Biological target: T3, Pfs48/45 D1-2
Experiment: ELISA
Details: both partners purified
Remark: another data set of the same source

Binder | binding result
B13 | binds
B14 | binds
B15 | binds
B16 | no binding (tested: 10 ug/ml)
B17 | binds

Biological target: T4, Pfs48/45 D2-3
Experiment: ELISA
Details: both partners purified
Remark: another data set of the same source

Binder | binding result
B11 | binds
B12 | binds
B13 | binds
B14 | binds
B15 | binds
B16 | binds
B17 | binds

Source: paper PMC9942873 (Immunity, 2023)
